Experimental data reported in patent CN115197321A (UNIV SICHUAN, dated 2022).
Like-named read-outs stand apart in the source and are kept apart here.

How the values were obtained:
[1] = target: CD25-hIgG1Fc(人CD25胞外域的C端融合人IgG1的Fc段) (human) (UniProt P01589); test: ELISA, coated CD25-hIgG1Fc 1 μg/mL
[2] = target: T1, CD25-His(人CD25胞外域的C端融合6×His标签) (human, UniProt P01589 22-240); test: SPR (Biacore) binding kinetics, Figure 6
T1 construct: extracellular domain; Made in-house; also called 人CD25-His
T1 sequence: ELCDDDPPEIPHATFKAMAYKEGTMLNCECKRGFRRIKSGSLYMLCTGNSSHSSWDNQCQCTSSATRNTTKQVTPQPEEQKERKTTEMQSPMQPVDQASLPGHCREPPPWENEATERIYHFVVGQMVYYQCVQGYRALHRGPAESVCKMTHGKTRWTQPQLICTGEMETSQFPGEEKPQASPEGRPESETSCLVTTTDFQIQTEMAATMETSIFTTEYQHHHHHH

[3] = target: T2, 人CD25 (on CD25-positive cells: SU-DHL-1, U937, NK-92, human PBMC) (human, UniProt P01589 22-272); test: flow cytometry on SU-DHL-1 and U937 cells, Figure 8
T2 construct: whole, on cells; Endogenous CD25 on human cells; also called IL-2Rα
T2 sequence (looked up): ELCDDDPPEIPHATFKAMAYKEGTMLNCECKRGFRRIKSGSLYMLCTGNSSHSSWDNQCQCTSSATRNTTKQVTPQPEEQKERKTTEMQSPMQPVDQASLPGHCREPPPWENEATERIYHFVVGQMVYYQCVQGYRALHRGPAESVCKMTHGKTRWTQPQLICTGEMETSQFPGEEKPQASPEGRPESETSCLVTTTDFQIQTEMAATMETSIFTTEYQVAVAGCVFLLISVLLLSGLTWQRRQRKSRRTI

[4] = target: T1, CD25-His(人CD25胞外域的C端融合6×His标签); test: SPR (Biacore)
[5] = target: T3, 鼠CD25(R&D公司) (鼠 (mouse), UniProt P01590 22-236, limits assumed); test: ELISA, coated mouse CD25 50 ng/well, hybridoma supernatant
T3 construct: Bought protein
T3 sequence (looked up): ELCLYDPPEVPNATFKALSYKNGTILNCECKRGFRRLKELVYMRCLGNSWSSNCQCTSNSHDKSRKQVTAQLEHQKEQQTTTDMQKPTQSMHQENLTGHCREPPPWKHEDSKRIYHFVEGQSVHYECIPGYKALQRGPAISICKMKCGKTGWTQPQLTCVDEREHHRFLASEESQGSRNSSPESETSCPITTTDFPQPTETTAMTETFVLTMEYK

[6] = target: T1, CD25-His(人CD25胞外域的C端融合6×His标签); test: SPR (Biacore); remark: listed apart in the source

## 小鼠IgG (antibody)
[1]
  OD450: < 0.3 OD

B1: 重组单克隆抗体F10-2 (antibody, V domains shown)
VH: QVQLKQSGPGLVQPSQSLSITCTVSGFSLTSYGVHWVRQSPGKGLEWLGVIWRGGSTDYNAAFMSRLSITKDNSKSQVFFKMNSLQAGDTAVYYCAKNERFYGFDYWGQGTTLTVSS
VL: DIVMTQAAFSNPVTLGTSASISCRSSKSLLHSNGITYLYWYLQKPGQSPQLLIYQMSNLASGVPDRFSSSGSGTDFTLRISRVEAEDVGVYYCAQNLELPTFGSGTKLEIK
notes: a human-mouse chimeric IgG1κ form was also made; also called 抗体F10-2(来自F10)
[2]
  binding result: binds
[3]
  binding result: binds

B2: hF10-2-3(BM4+BM3) (antibody, V domains shown)
VH: QVQLKQSGPGLVKPSDTLSLTCTVSGFSLTSYGVHWVRQPPGKGLEWLGVIWRGGSTDYNAAFMSRLSITKDNSKSQVSLKLSSVTAADTAVYYCAKNERFYGFDYWGQGTLVTVSS
VL: DIVMTQSPLSLPVTPGEPASISCRSSKSLLHSNGITYLYWYLQKPGQSPQLLIYQMSNLASGVPDRFSSSGSGTDFTLRISRVEAEDVGVYYCAQNLELPTFGGGTKVEIK
notes: Made as for h7B7 (human IgG1κ)
[4]
  Kd: 10.5 nM
  koff: 0.00333 s⁻¹
  kon: 318000 M⁻¹ s⁻¹

B3: 杂交瘤抗体F10 (antibody, IgG2a, V domains shown)
VH: QVQLKQSGPGLVQPSQSLSITCTVSGFSLTSYGVHWVRQSPGKGLEWLGVIWRGGSTDYNAAFMSRLSITKDNSKSQVFFKMNSLQAGDTAVYYCAKNERFYGFDYWGQGTTLTVSS
VL: DIVMTQAAFSNPVTLGTSASISCRSSKSLLHSNGITYLYWYLQKPGQSPQLLIYQMSNLASGVPDRFSSSGSGTDFTLRISRVEAEDVGVYYCAQNLELPTFGSGTKLEIK
notes: Mouse hybridoma antibody, mIgG2a; the tie to the hybridoma antibody rests on that statement
[5]
  binding result: no binding

B4: hF10-2-1(BM4+BM) (antibody, V domains shown)
VH: QVQLKQSGPGLVKPSDTLSLTCTVSGFSLTSYGVHWVRQPPGKGLEWLGVIWRGGSTDYNAAFMSRLSITKDNSKSQVSLKLSSVTAADTAVYYCAKNERFYGFDYWGQGTLVTVSS
VL: DIVMTQSPLSLPVTPGEPASISCRSSKSLLHSNGITYLYWYLQKPGQSPQLLIYQMSNLASGVPDRFSSSGSGTDFTLKISRVEAEDVGVYYCAQNLELPTFGGGTKVEIK
notes: as for B2
[4]
  binding result: no binding

B5: hF10-2-2(BM5+BM) (antibody, V domains shown)
VH: QVQLKESGPGLVKPSDTLSLTCTVSGFSLTSYGVHWIRQPPGKGLEWIGVIWRGGSTDYNAAFMSRLSITKDNSKSQVSLKLSSVTAADTAVYYCAKNERFYGFDYWGQGTLVTVSS
VL: DIVMTQSPLSLPVTPGEPASISCRSSKSLLHSNGITYLYWYLQKPGQSPQLLIYQMSNLASGVPDRFSSSGSGTDFTLKISRVEAEDVGVYYCAQNLELPTFGGGTKVEIK
notes: as for B2
[4]
  binding result: no binding

B6: hF10-2-4(BM5+BM3) (antibody, V domains shown)
VH: QVQLKESGPGLVKPSDTLSLTCTVSGFSLTSYGVHWIRQPPGKGLEWIGVIWRGGSTDYNAAFMSRLSITKDNSKSQVSLKLSSVTAADTAVYYCAKNERFYGFDYWGQGTLVTVSS
VL: DIVMTQSPLSLPVTPGEPASISCRSSKSLLHSNGITYLYWYLQKPGQSPQLLIYQMSNLASGVPDRFSSSGSGTDFTLRISRVEAEDVGVYYCAQNLELPTFGGGTKVEIK
notes: as for B2
[4]
  Kd: 18.1 nM
  koff: 0.00126 s⁻¹
  kon: 69900 M⁻¹ s⁻¹

B7: 人源化抗体h7B7-15 (antibody, V domains shown)
VH: QVQLQESGPGLVKPSQTLSLTCAVYGYSITSDYAWNWIRQPPGKGLEWIGYINYSGSTSYNPSLKSRVTISVDTSKNQFSLKLSSVTAADTAVYYCARKGGFFDVWGQGTTVTVSS
VL: DIQMTQSPSSLSASVGDRVTITCSASQGISNYLNWYQQKPGKAPKLLIYYTSSLHSGVPSRFSGSGSGTDFTFTISSLQPEDIATYYCLQYSKLPWTFGGGTKVEIK
notes: Human IgG1κ; heavy chain 4 (IGHV4-34*09) with light chain 3 (IGKV1-33*01)
[6]
  Kd: 2.33 nM
  koff: 0.000356 s⁻¹
  kon: 153000 M⁻¹ s⁻¹

B8: h7B7-15A (antibody, V domains shown)
VH: QVQLQESGPGLVKPSQTLSLTCAVYGYSITSDYAWNWIRQPPGKGLEWIGYIAYSGSTSYNPSLKSRVTISVDTSKNQFSLKLSSVTAADTAVYYCARKGGFFDVWGQGTTVTVSS
VL: DIQMTQSPSSLSASVGDRVTITCSASQGISNYLNWYQQKPGKAPKLLIYYTSSLHSGVPSRFSGSGSGTDFTFTISSLQPEDIATYYCLQYSKLPWTFGGGTKVEIK
notes: Mutant of h7B7-15 in the N of the NYS motif of VH-CDR2; human IgG1κ as the parent; also called h7B7突变体 N53A
[6]
  Kd: 8.55 nM
  koff: 0.00103 s⁻¹
  kon: 121000 M⁻¹ s⁻¹

B9: h7B7-15Y (antibody, V domains shown)
VH: QVQLQESGPGLVKPSQTLSLTCAVYGYSITSDYAWNWIRQPPGKGLEWIGYIYYSGSTSYNPSLKSRVTISVDTSKNQFSLKLSSVTAADTAVYYCARKGGFFDVWGQGTTVTVSS
VL: DIQMTQSPSSLSASVGDRVTITCSASQGISNYLNWYQQKPGKAPKLLIYYTSSLHSGVPSRFSGSGSGTDFTFTISSLQPEDIATYYCLQYSKLPWTFGGGTKVEIK
notes: Mutant of h7B7-15 in the N of the NYS motif of VH-CDR2; human IgG1κ as the parent; also called h7B7突变体 N53Y
[6]
  binding result: no binding

B10: h7B7-15S (antibody, V domains shown)
VH: QVQLQESGPGLVKPSQTLSLTCAVYGYSITSDYAWNWIRQPPGKGLEWIGYISYSGSTSYNPSLKSRVTISVDTSKNQFSLKLSSVTAADTAVYYCARKGGFFDVWGQGTTVTVSS
VL: DIQMTQSPSSLSASVGDRVTITCSASQGISNYLNWYQQKPGKAPKLLIYYTSSLHSGVPSRFSGSGSGTDFTFTISSLQPEDIATYYCLQYSKLPWTFGGGTKVEIK
notes: N53S mutant of h7B7-15; human IgG1κ as the parent; also called h7B7突变体 N53S
[6]
  Kd: 4.83 nM
  koff: 0.000554 s⁻¹
  kon: 115000 M⁻¹ s⁻¹

B11: h7B7-15Q (antibody, V domains shown)
VH: QVQLQESGPGLVKPSQTLSLTCAVYGYSITSDYAWNWIRQPPGKGLEWIGYIQYSGSTSYNPSLKSRVTISVDTSKNQFSLKLSSVTAADTAVYYCARKGGFFDVWGQGTTVTVSS
VL: DIQMTQSPSSLSASVGDRVTITCSASQGISNYLNWYQQKPGKAPKLLIYYTSSLHSGVPSRFSGSGSGTDFTFTISSLQPEDIATYYCLQYSKLPWTFGGGTKVEIK
notes: Mutant of h7B7-15 in the N of the NYS motif of VH-CDR2; human IgG1κ as the parent; also called h7B7突变体 N53Q
[6]
  Kd: 21.1 nM
  koff: 0.00502 s⁻¹
  kon: 238000 M⁻¹ s⁻¹

B12: 重组单克隆抗体7B7 (antibody, V domains shown)
VH: EVQLQESGPGLVKPSQSLSLTCTVTGYSITSDYAWNWIRQFPGNKLEWMGYINYSGSTSYNPSLKSRISITRDTSKNQFFLQLNSVTTEDTATYYCARKGGFFDVWGAGTTVTVSS
VL: DIQMTQTTSSLSASLGDRVTISCSASQGISNYLNWYQQKPDGTVKLLIYYTSSLHSGVPSRFSGSGSGTDYSLTISNLEPEDIATYYCLQYSKLPWTFGGGTKLEIK
notes: a human-mouse chimeric IgG1κ form was also made; also called 抗体7B7(来自B7)
[2]
  binding result: binds
[3]
  binding result: binds

B13: 杂交瘤抗体B7 (antibody, IgG1, V domains shown)
VH: EVQLQESGPGLVKPSQSLSLTCTVTGYSITSDYAWNWIRQFPGNKLEWMGYINYSGSTSYNPSLKSRISITRDTSKNQFFLQLNSVTTEDTATYYCARKGGFFDVWGAGTTVTVSS
VL: DIQMTQTTSSLSASLGDRVTISCSASQGISNYLNWYQQKPDGTVKLLIYYTSSLHSGVPSRFSGSGSGTDYSLTISNLEPEDIATYYCLQYSKLPWTFGGGTKLEIK
notes: Mouse hybridoma antibody, mIgG1; the tie to the hybridoma antibody rests on that statement
[5]
  binding result: no binding
